Laboratory results published in patent publication US11999805.

B1: SauCas9 (protein)
chain: MKRNYILGLDIGITSVGYGIIDYETRDVIDAGVRLFKEANVENNEGRRSKRGARRLKRRRRHRIQRVKKLLFDYNLLTDHSELSGINPYEARVKGLSQKLSEEEFSAALLHLAKRRGVHNVNEVEEDTGNELSTKEQISRNSKALEEKYVAELQLERLKKDGEVRGSINRFKTSDYVKEAKQLLKVQKAYHQLDQSFIDTYIDLLETRRTYYEGPGEGSPFGWKDIKEWYEMLMGHCTYFPEELRSVKYAYNADLYNALNDLNNLVITRDENEKLEYYEKFQIIENVFKQKKKPTLKQIAKEILVNEEDIKGYRVTSTGKPEFTNLKVYHDIKDITARKEIIENAELLDQIAKILTIYQSSEDIQEELTNLNSELTQEEIEQISNLKGYTGTHNLSLKAINLILDELWHTNDNQIAIFNRLKLVPKKVDLSQQKEIPTTLVDDFILSPVVKRSFIQSIKVINAIIKKYGLPNDIIIELAREKNSKDAQKMINEMQKRNRQTNERIEEIIRTTGKENAKYLIEKIKLHDMQEGKCLYSLEAIPLEDLLNNPFNYEVDHIIPRSVSFDNSFNNKVLVKQEENSKKGNRTPFQYLSSSDSKISYETFKKHILNLAKGKGRISKTKKEYLLEERDINRFSVQKDFINRNLVDTRYATRGLMNLLRSYFRVNNLDVKVKSINGGFTSFLRRKWKFKKERNKGYKHHAEDALIIANADFIFKEWKKLDKAKKVMENQMFEEKQAESMPEIETEQEYKEIFITPHQIKHIKDFKDYKYSHRVDKKPNRELINDTLYSTRKDDKGNTLIVNNLNGLYDKDNDKLKKLINKSPEKLLMYHHDPQTYQKLKLIMEQYGDEKNPLYKYYEETGNYLTKYSKKDNGPVIKKIKYYGNKLNAHLDITDDYPNSRNKVVKLSLKPYRFDVYLDNGVYKFVTVKNLDVIKKENYYEVNSKCYEEAKKLKKISNQAEFIASFYNNDLIKINGELYRVIGVNNDLLNRIEVNMIDITYREYLENMNDKRPPRIIKTIASKTQSIKKYSTDILGNLYEVKSKKHPQIIKKG
B2: CjeCas9 (protein)
chain: MARILAFDIGISSIGWAFSENDELKDCGVRIFTKVENPKTGESLALPRRLARSARKRLARRKARLNHLKHLIANEFKLNYEDYQSFDESLAKAYKGSLISPYELRFRALNELLSKQDFARVILHIAKRRGYDDIKNSDDKEKGAILKAIKQNEEKLANYQSVGEYLYKEYFQKFKENSKEFTNVRNKKESYERCIAQSFLKDELKLIFKKQREFGFSFSKKFEEEVLSVAFYKRALKDFSHLVGNCSFFTDEKRAPKNSPLAFMFVALTRIINLLNNLKNTEGILYTKDDLNALLNEVLKNGTLTYKQTKKLLGLSDDYEFKGEKGTYFIEFKKYKEFIKALGEHNLSQDDLNEIAKDITLIKDEIKLKKALAKYDLNQNQIDSLSKLEFKDHLNISFKALKLVTPLMLEGKKYDEACNELNLKVAINEDKKDFLPAFNETYYKDEVTNPVVLRAIKEYRKVLNALLKKYGKVHKINIELAREVGKNHSQRAKIEKEQNENYKAKKDAELECEKLGLKINSKNILKLRLFKEQKEFCAYSGEKIKISDLQDEKMLEIDHIYPYSRSFDDSYMNKVLVFTKQNQEKLNQTPFEAFGNDSAKWQKIEVLAKNLPTKKQKRILDKNYKDKEQKNFKDRNLNDTRYIARLVLNYTKDYLDFLPLSDDENTKLNDTQKGSKVHVEAKSGMLTSALRHTWGFSAKDRNNHLHHAIDAVIIAYANNSIVKAFSDFKKEQESNSAELYAKKISELDYKNKRKFFEPFSGFRQKVLDKIDEIFVSKPERKKPSGALHEETFRKEEEFYQSYGGKEGVLKALELGKIRKVNGKIVKNGDMFRVDIFKHKKTNKFYAVPIYTMDFALKVLPNKAVARSKKGEIKDWILMDENYEFCFSLYKDSLILIQTKDMQEPEFVYYNAFTSSTVSLIVSKHDNKFETLSKNQKILFKNANEKEVIAKSIGIQNLKVFEKYIVSALGEVTKAEFRQREDFKK

How the values were obtained:
[1] = target: SpyCas9 (S. pyogenes), Q99ZW2; test: cell-based or functional assay
Peptide 99 = target: T1, Peptide 99
T1 chain: RRSHIAWLLAMSLTWYS

Peptide 91 = target: T2, Peptide 91
T2 chain: VYDFYRMLSHFFLKGPSR

Peptide 15 = target: T3, Peptide 15
T3 chain: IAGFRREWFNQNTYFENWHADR

Peptide 90 = target: T4, Peptide 90
T4 chain: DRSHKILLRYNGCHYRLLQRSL

Peptide 60 = target: T5, Peptide 60
T5 chain: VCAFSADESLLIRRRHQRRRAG

Row | Binder | IC50(uM), FRET cleavage assay [1] [µM] | reduced editing (compared to plasmid control), A549 GFP reporter cells [1] [%] | other results
1 | LYYRIMLSCPKYYPCELVGHTS (modifications not checked) [Peptide 50] | 145 | 30 | –
2 | VCAFSADESLLIRRRHQRRRAG (modifications not checked) [Peptide 60] | 92.2 | 30 | –
3 | B1 | – | – | % activity, FRET cleavage assay (Peptide 99): Peptide 99 significantly reduced activity of all three Cas9 variants at 100 and 200 µM (P<0.005); % activity, FRET cleavage assay (Peptide 91): Peptide 60, 90, and 91 significantly reduced activity of SauCas9 and SpyCas9 at 200 µM (P<0.005); % activity, FRET cleavage assay (Peptide 15): Peptide15 significantly reduced activity of CjeCas9 and SpyCas9 and SauCas9 at 200 µM (P<0.01); % activity, FRET cleavage assay (Peptide 90): Peptide 60, 90, and 91 significantly reduced activity of SauCas9 and SpyCas9 at 200 µM (P<0.005); reduction in cleavage-based fluorescence at 200 µM peptide, FRET assay (Many MPs): Many MPs also reduced SauCas9 and CjeCas9 mediated cleavage at 200 µM with a greater than 80% reduction in fluorescence; % activity, FRET cleavage assay (Peptide 60): Peptide 60, 90, and 91 significantly reduced activity of SauCas9 and SpyCas9 at 200 µM (P<0.005)
4 | B2 | – | – | % activity, FRET cleavage assay (Peptide 99): Peptide 99 significantly reduced activity of all three Cas9 variants at 100 and 200 µM (P<0.005); % activity, FRET cleavage assay (Peptide 15): Peptide15 significantly reduced activity of CjeCas9 and SpyCas9 and SauCas9 at 200 µM (P<0.01); reduction in cleavage-based fluorescence at 200 µM peptide, FRET assay (Many MPs): Many MPs also reduced SauCas9 and CjeCas9 mediated cleavage at 200 µM with a greater than 80% reduction in fluorescence
5 | LNVKIGNAHLTTIMSTMPLVLC (modifications not checked) [Peptide 63] | 97.9 | – | –
6 | KERRRSLMQLSVKSNSLFLGGT (modifications not checked) [Peptide 82] | > 200 | – | –
7 | DRSHKILLRYNGCHYRLLQRSL (modifications not checked) [Peptide 90] | 114 | 35 | –
8 | RRSHIAWLLAMSLTWYS (modifications not checked) [Peptide 99] | 48.5 | – | –
9 | IAGFRREWFNQNTYFENWHADR (modifications not checked) [Peptide 15] | – | 21 | –
